Among the data in publication PMC10148854, “A link between STK signalling and capsular polysaccharide synthesis in Streptococcus suis” (Nature Communications, 2023) are stoichiometry N, relative activity and fold higher affinity than rCcpS-T4ET7E values, retold here.

Test [1] addresses CcpS, as crystallised (Streptococcus suis). The test is described as follows: crystal structure; sitting-drop vapour diffusion at 277 K; 0.1 M Tris-HCl pH 8.0, 15% ethanol; 1.6 Å; molecular replacement with IreB (PDB 5US5).
Test [2] has as its target T1, CpsB (rCpsB) (Streptococcus suis, UniProt Q9X4U8).
T1 construct: gene cps2D; rs02785 in pET-28a, His-tag, expressed in E. coli BL21(DE3), HisTrap purified; capsule locus tyrosine phosphatase (PHP type, Mn-dependent)
The test is described as follows: colorimetric phosphatase assay, absorbance […] nm. It is filed as biochemical. The settings on record: 50 nM enzyme, 16 uM pNPP, 1 mM MnCl2, 20 mM Tris pH 8.0, 150 mM NaCl, 37 °C.

For test [3], the target named is rCpsB-His (Streptococcus suis). Nature of the test: SPR. For orientation: SPR reads the build-up and loss of mass on a sensor chip optically.

As a reminder, the stoichiometry N is the number of molecules, sites or subunits per partner or assembly.

Take CcpS, as crystallised (natural protein): the stoichiometry N in test [1] amounted to 2.

Regarding `O=[N+]([O-])c1ccc(OP(=O)(O)O)cc1` [pNPP, p-nitrophenyl phosphate], the relative activity result in test [2] was “Colorimetric phosphatase assays of CpsB activity were performed using p-nitrophenyl phosphate (pNPP)”.

Regarding rCcpS-T4VT7V (natural protein), the fold higher affinity than rCcpS-T4ET7E in test [3] was over 10 fold.
